Measured values from publication PMC10197177, “Development of high affinity broadly reactive aptamers for spike protein of multiple SARS-CoV-2 variants†”.

B1: Oligo14 (ssDNA)
DNA: CCACATCTACGAGCTCGAACGCCCGGAGGAGACGGGGGCAGGGCGTGTTCACTGCAGACTTGA
B2: K1 (truncated working aptamer) (ssDNA)
DNA: AATGGATCCACATCTACGAGCTCGAACGCCCGGAGGAGACGGGGGCAGGGCGTGTTCACTGCAGACTTGACGAAGCT
B3: M40 (truncated working aptamer) (ssDNA)
DNA: ATCTACGAATTCTCCGCCAAGATAGAGGGTGGGCCGCGGAGAATTCACTGC

Molecular target: Spike protein, wild-type (Wuhan) (SARS-CoV-2 (wild-type, original Wuhan …, UniProt P0DTC2 14-1213))
Test: ELONA; Tris buffer; […], pH 7.4, room temperature, spike immobilized; […], pH 7.4 ([…]
Settings: protein: recombinant; chain copies: 3; label: 3' biotin

Question: How did the Kd turn out when B1 was run?
Answer: 5.29 ± 0.95 nM

Question: How did the Kd turn out when B2 was run?
Answer: 0.066 ± 0.004 nM

Question: With ACGAGCTCGAACGCCCGGAGGAGACGGGGGCAGGGCGTGTTCACTGC (ssDNA) [Oligo30] as the binder, how does the Kd read?
Answer: 245 ± 8 nM

Question: With B3 as the binder, how does the Kd read?
Answer: 0.155 ± 0.026 nM
